The text below walks through data of paper PMC13167773, “Chiral inversion mutagenesis identifies geometrically constrained residues within self-associating low-complexity domains” (Proceedings of the National Academy of Sciences of the …, 2026).

To fix the notation:
T1: wild-type glutathione S-transferase (GST)-EMD LCD fusion protein
T1 sequence (P50402 whole entry, species assumed, looked up): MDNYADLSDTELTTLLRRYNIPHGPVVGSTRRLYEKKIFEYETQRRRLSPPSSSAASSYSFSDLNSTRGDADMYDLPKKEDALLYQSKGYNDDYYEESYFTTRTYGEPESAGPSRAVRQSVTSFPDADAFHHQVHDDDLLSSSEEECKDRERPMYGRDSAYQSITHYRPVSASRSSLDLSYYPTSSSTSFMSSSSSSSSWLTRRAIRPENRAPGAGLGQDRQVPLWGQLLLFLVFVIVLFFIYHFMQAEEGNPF

B1: HA-tagged semisynthetic EMD LCD 3×D_(191-195) (domain or fragment)
chain: RRLSPPSSSAASSYSFSDLNSTRGDADMYDLPKKEDALLYQSKGYNDDYYEESYFTTRTYGEPESAGPSRAVRQSVTSFPDADAFHHQVHDDDLLSSSEEECKDRERPMYGRDSAYQSITHYRPVSASRSSLDLSYYPTSSSTCFMSSSSSSSSWLTRRAIRPENRAPGAGLGQER
modifications: three D-amino acids at alternating positions, 3×D_(191-195)
B2: HA-tagged semisynthetic EMD LCD 3×D_(211-215) (domain or fragment)
chain: B1 chain
modifications: three D-amino acids at alternating positions, 3×D_(211-215)
B3: HA-tagged semisynthetic EMD LCD 3×D_(203-207) (domain or fragment)
chain: B1 chain
modifications: three D-amino acids at alternating positions, 3×D_(203-207)
B4: HA-tagged semisynthetic EMD LCD 3×D_(195-199) (domain or fragment)
chain: B1 chain
modifications: three D-amino acids at alternating positions, 3×D_(195-199)
B5: HA-tagged semisynthetic EMD LCD 3×D_(207-211) (domain or fragment)
chain: B1 chain
modifications: three D-amino acids at alternating positions, 3×D_(207-211)
B6: HA-tagged semisynthetic EMD LCD 3×D_(199-203) (domain or fragment)
chain: B1 chain
modifications: three D-amino acids at alternating positions, 3×D_(199-203)
B7: untagged semisynthetic EMD LCD 3×D_(195-199) (protein)
chain: B1 chain
B8: untagged semisynthetic EMD LCD 3×D_(199-203) (protein)
chain: B1 chain
B9: untagged semisynthetic EMD LCD 3×D_(203-207) (protein)
chain: B1 chain
B10: untagged semisynthetic EMD LCD 3×D_(191-195) (protein)
chain: B1 chain
B11: semisynthetic EMD LCD with a central 1×D inversion within the 3×D_(191-195) variant (protein)
chain: B1 chain
B12: untagged semisynthetic EMD LCD (residues 46 to 221), all-L-WT (domain or fragment, UniProt P50402 46-221, looked up)
chain: B1 chain
notes: Emerin (EMD) LCD residues 46 to 221, S189C and D220E; Rink amide resin implies a C-terminal amide (surmised); also called WT variant; source: RP-HPLC purified
B13: synthetic NEFL head domain 5×D_(22-30) (protein)
chain: SSFSYEPYYSTSYKRRYVETPRVHISSVRCGYSTARSAYSSYSAPVSSSLSVRRSYSSSSGSLMPSLENLELS
B14: synthetic NEFL head domain 5×D_(33-41) (protein)
chain: B13 chain
B15: synthetic NEFL head domain 5×D_(63-71) (protein)
chain: B13 chain
B16: synthetic NEFL head domain 5×D_(43-51) (protein)
chain: B13 chain
B17: synthetic NEFL head domain 5×D_(53-63) (protein)
chain: B13 chain
B18: synthetic NEFL head domain (residues 2 to 74), WT (domain or fragment, UniProt P07196 2-74, looked up)
chain: B13 chain
notes: neurofilament light chain (NEFL) head domain residues 2 to 74, ligation junction cysteine S31C and D72E; also called WT head domain; NEFL LCD; source: fully synthetic: NEFL-P1 (2 to 30, MesNa thioester) ligated to NEFL-P2 (31 to 74) by native chemical ligation; RP-HPLC purified

One data set deals with T1, wild-type glutathione S-transferase (GST)-EMD LCD fusion protein. The experiment in a line: pull-down; WT GST-EMD LCD immobilized on glutathione resin, incubated with HA-tagged EMD LCD prey (50 nM), washed with binding buffer, eluted with GSH; anti-HA Western blot of eluent relative to input, densitometry, n = 3.
Conditions: not given
A general note: Immunoblotting shows a protein as a band on a membrane.
B1 returned a fold reduction of pulldown relative to WT of 8.8 fold.

B2 registered a fold difference of pulldown from WT of 1.7 fold.

The molecule B3 yielded a fold reduction of pulldown relative to WT of 3.6 fold.

Take B4: the fold reduction of pulldown relative to WT is 7.9 fold.

In the case of B5, the fold difference of pulldown from WT was 1.8 fold.

On to B6, for which the fold reduction of pulldown relative to WT worked out at 6.2 fold.

For the next data set, the target named is P50402. The experiment in a line: turbidity (absorbance at 395 nm); untagged semisynthetic EMD LCD ChIM library, 50 μM LCD, rapid dilution from strong denaturant into physiological buffer, n = 3. The note with it: other: turbidity (absorbance at 395 nm).
The molecule B7 came in with a fold decrease in turbidity of 2.8 fold.

Consider B8, for which the “fold decrease in turbidity” value is given as 2.1-fold.

B9: the “fold decrease in turbidity” value is on record as “a modest 1.4-fold decrease in turbidity”.

As for B10, the fold decrease in turbidity stood at 13.3 fold.

As for B11, the “fold decrease in turbidity relative to WT” value is “a 6.4-fold decrease in turbidity relative to WT”.

Another data set deals with the molecule itself. The description is as above.
Conditions: not given
Consider B12, for which the binding result is recorded as “binds”.

Another data set has as its target P07196. As to the kind of experiment: turbidity (absorbance at 395 nm); synthetic NEFL head domain 5×D library, 100 μM LCD, A395, n = 3. The conditions noted are these: other: turbidity (absorbance at 395 nm).
In the case of B13, the “fold decrease in turbidity relative to WT” value is recorded as 9.1-fold.

For the molecule B14, the “fold decrease in turbidity relative to WT” value is on record as 20-fold.

For the molecule B15, the fold decrease in turbidity relative to WT was determined as 1 fold.

B16: the “fold decrease in turbidity relative to WT” value is reported as 2.7-fold.

For B17, the “fold decrease in turbidity relative to WT” value is 1.6-fold.

Another data set deals with the molecule itself. The description is as above.
Conditions: not given
As for B18, the binding result was “binds”.

The next data set deals with T1, wild-type glutathione S-transferase (GST)-EMD LCD fusion protein. As to the kind of experiment: pull-down; WT GST-EMD LCD immobilized on glutathione resin, incubated with HA-tagged EMD LCD prey (50 nM), washed with binding buffer, eluted with GSH; anti-HA Western blot of eluent relative to input, densitometry, n = 3.
Conditions: not given
The source holds these as a separate data set.
For the molecule “HA-tagged EMD LCD 3×Pro_(188-191) (domain or fragment)”, the fold reduction of pulldown relative to WT was 5 fold.

Turning to “HA-tagged EMD LCD 3×Pro_(193-196) (domain or fragment)”, the fold reduction of pulldown relative to WT was determined as 5.9 fold.

With “HA-tagged EMD LCD 3×Pro_(198-201) (domain or fragment)”, the fold reduction of pulldown relative to WT worked out at 3.4 fold.

Take “HA-tagged EMD LCD 3×Pro_(183-186) (domain or fragment)”: the fold reduction of pulldown relative to WT was 2.2 fold.

Tested on in another data set: not listed separately
The experiment in a line: turbidity (absorbance at 395 nm); untagged recombinant EMD LCD 3×Pro library, 60 μM LCD, transfer from denaturing to native Tris buffer, n = 3; self-association read as precipitation. The note with it: other: turbidity (absorbance at 395 nm).
For the molecule untagged EMD LCD 3×Pro_(198-201), the fold reduction of turbidity relative to WT stood at 34.7 fold.

As to untagged EMD LCD 3×Pro_(203-206), the “fold reduction of turbidity relative to WT” value is listed as 14.3-fold.

Take untagged EMD LCD 3×Pro_(193-196): the fold reduction of turbidity relative to WT is 16.6 fold.

As for untagged EMD LCD 3×Pro_(183-186), the “fold reduction of turbidity relative to WT” value is “modestly reduces turbidity by 2.8-fold relative to WT”.

For untagged EMD LCD 3×Pro_(188-191), the fold reduction of turbidity relative to WT stood at 108 fold.
